The source of these data is publication PMC6877527, “Sugar-mediated regulation of a c-di-GMP phosphodiesterase in Vibrio cholerae” (Nature Communications, 2019).

One assay deals with GST-PdeS (V. cholerae). Briefly: MST; NanoTemper Monolith NT.115pico; GST-PdeS labeled with NT-647 at 4.875 nM; unlabeled EIIA^Glc titrated in 1:1 serial dilutions from 21.9 uM; 25 mM HEPES-NaOH pH 7.6, 100 mM NaCl, 5 mM beta-mercaptoethanol, 0.5 mg/ml BSA, 0.05% Tween 20; 15% LED power, 30% MST power, 22 C.
For another assay, the target named is T1, VC1710 (PdeS) (Vibrio cholerae, UniProt Q9KRD2).
T1 construct: gene VC_1710
Briefly: biochemical.

“hexahistidine-tagged EIIA^Glc, dephosphorylated form (natural protein)” had a Kd in the assay with GST-PdeS (V. cholerae) of 114 nM. In other words, the sub-micromolar range.
The compound “hexahistidine-tagged EIIA^Glc, phosphorylated form (natural protein)” yielded a dissociation constant (Kd) in the assay with GST-PdeS (V. cholerae) of 287 nM.
Consider `Nc1nc2c(ncn2[C@@H]2O[C@@H]3CO[P@](=O)(O)O[C@H]4[C@@H](O)[C@H](n5cnc6c(=O)[nH]c(N)nc65)O[C@@H]4CO[P@](=O)(O)O[C@H]3[C@H]2O)c(=O)[nH]1` [c-di-GMP], for which the Kd on VC1710 (PdeS) is around 8700 nM.
